Laboratory results reported in patent CN114539393A (BEIJING NEUABO XINESCAPE BIOTECHNOLOGY CO LTD, dated 2022).

Biological target: T1, SARS-CoV2的N蛋白 (SARS-CoV2, UniProt P0DTC9 1-419)
T1 construct: also called 新冠状病毒N蛋白; 2019-新型冠病毒N蛋白
Experiment: ELISA, N protein coated at 2 ug/ml, VHH at 10.0 and 1.0 ug/ml, anti-Myc-HRP detection, OD450

Binder	binding result
N2-10单域抗体 (VHH, also called 单域抗体N2-10; N2-10-PSJF; not shown: c-myc and His6 tags from the pSJF2 vector) VHH: QVQLVESGGGLVQTGGSLGVSCAASGRTFSIYAMGWFRQAPGKEREFVAAISKSGDGKYYADSVKGRFTISRDNAKNTVALQMNSLKFEDTAVYYCVASRTVVSGASPDEYDLWGQGTQVTVSS	binds
N2-8单域抗体 (VHH, also called 单域抗体N2-8; N2-8-pSJF2; not shown: c-myc and His6 tags from the pSJF2 vector) VHH: QVQLVESGGGSVQAGGSLRLSCAASGRTFSIYAMGWFRQAPGKEREFVAAISKSGEGTYYADSVKGRFTISRDNAKNTVALQMNSLKSEDTAVYYCAASRVVVSGLSPSDYAYWGQGTQVTVSS	binds
